Results as given in paper PMC9337809 (Brain, 2022).

Assays:
Assay in all cases: ELISA
[1] = molecular target: α-synuclein protein aggregates (Homo sapiens, UniProt P37840)
SOD protein aggregates = SOD protein aggregates (Homo sapiens (assumed), UniProt P00441)
[2] = molecular target: Aβ(1–28), synthetic, aggregated in the presence of Ca2+ (Homo sapiens, UniProt P05067)
Aβ(1–28), synthetic, aggregated in the presence of Ca2+, sequence (P05067 672-699): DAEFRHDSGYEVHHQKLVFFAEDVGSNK

SOD protein aggregates, sequence (P00441 whole entry): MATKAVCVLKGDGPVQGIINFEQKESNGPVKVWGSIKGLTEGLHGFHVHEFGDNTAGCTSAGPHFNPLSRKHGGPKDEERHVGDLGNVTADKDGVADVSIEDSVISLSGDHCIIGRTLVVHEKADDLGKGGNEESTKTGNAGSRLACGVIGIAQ

B1: B24, human monoclonal antibody raised against synthetic oligomeric amyloid-β (antibody, V domains shown)
VH: EVQLLESGGGLVQPGGSLRLSCAASGFTFSSYAMTWVRQAPGEGLEWVSTISGSGIRTYYADSVKGRFTISRDNSKNTMYLQMNSLRAEDTAVYYCAKDGLTGDRRWYFDLWGRGTLVTVSS
VL: EIVMTQSPATLSLSPGERATLSCRASQSVSSSYFSWYQQKPGQAPRLLIYGASTRATGIPARFSGSGSGTDFTLTISSLQPEDFAVYYCQQDSNLPLTFGGGTKVEIK
[1]
  binding result: no binding
SOD protein aggregates
  binding result: no binding
[2]
  binding result: binds

B2: B28, human monoclonal antibody raised against synthetic oligomeric amyloid-β (antibody, V domains shown)
VH: QVQLVESGGGVVQPGRSVRLSCAATGFTFSSYGMHWVRQAPGKGLEWVAVIWFDGSNEYYADSVRGRFTISRDNSKNTLYLQMNSLRAEDTAVYYCARRGRVGVTRNYYYYNMDVWGQGTTVTVSS
VL: AIQMTQSPSSLSASVGDRVTITCRASQGIRNDLGWFQQKPGKAPKLLIYPASSLQSGVPSRFSGSGSDTDFTLTISSLQPEDFATYYCLQDYNFPFTFGPGTKVDIK
[1]
  binding result: no binding
SOD protein aggregates
  binding result: no binding
